The data set “negative-stain EM” concerns the molecule itself. Briefly: negative-stain EM.
The data set “cross-linking” concerns the molecule itself. Briefly: cross-linking.

By stoichiometry N is commonly meant the number of molecules, sites or subunits per partner or assembly.

B1: fPanx1ΔC (frog Pannexin 1 truncated at Lys357, residues 1-357) (domain or fragment, UniProt B3DLA5 1-357, looked up)
chain: MAIAHIATEYVFSDFLLKDPPESKYKGLRLELAVDKLVSCIAVGLPLLLISLAFAQEITLGSQISCFAPTSFSWRQAAYVDSFCWAAVQQKHLSQSDSGNVPLWLHKFFPYILLLVAVLLYLPNLFWRFTAAPHLSSDLKFVMEELDKCYNRDIKDIKAANNLNSSDKRDGLNSPVVSENLQQSLWEIPLSHYKYPIVEQYLKTKNNSYGLIIKYLICRVVTLIIVFTACIYLGYYISLFSLTDEFTCNIRTGILRNDTALPPLVQCKLIAVGVFRLLSYINLIIYVLIMPFIIYAMLVPFRKTANVLKVYEVLPTFSVQQAPSKTYDDHSLFLLFLEENVSELKSYKFLKVLENIK
modifications: glycosylated in insect cells (upper band sensitive to PNGaseF; site not stated)
B1: the “stoichiometry N” value is 7 in the data set “negative-stain EM” and around 7 in “cross-linking”.

Source of the values: publication doi:10.1101/2020.12.31.425019 (bioRxiv, 2020).
